Measurements published in paper PMC4814101.

Legend:
[1] = target: Bothropstoxin I (Bothrops jararacussu) (UniProt Q90249); assay: SPR; Biacore T200; […]; 30 μL/min, 37°C; running buffer 0.1 M phosphate, 27 mM KCl, 1.37 M NaCl, pH 7.4; 1:1 Langmuir model
[2] = target: Bothropstoxin II (Bothrops jararacussu) (UniProt P45881); assay: as above
Sequence of UniProt P45881 (P45881 17-138): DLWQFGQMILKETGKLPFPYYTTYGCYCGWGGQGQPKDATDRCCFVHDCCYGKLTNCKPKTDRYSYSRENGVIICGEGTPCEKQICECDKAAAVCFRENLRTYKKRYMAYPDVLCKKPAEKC

Sequence of UniProt Q90249 (Q90249 17-137): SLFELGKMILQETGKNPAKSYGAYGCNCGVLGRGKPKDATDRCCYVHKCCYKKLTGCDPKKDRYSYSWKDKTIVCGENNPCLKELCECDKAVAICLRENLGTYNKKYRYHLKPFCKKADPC

Substance	Kd [1] [nM]	koff [1] [s⁻¹]	kon [1] [M⁻¹ s⁻¹]	Kd [2] [nM]	koff [2] [s⁻¹]	kon [2] [M⁻¹ s⁻¹]
VHH KC329718	53.9	0.0346	642000	770	0.258	335000
VHH KF498607	629	0.162	257000	–	0.516	184000
VHH KF498608	668	0.119	179000	42.7	0.0302	–
